The text below walks through data of paper PMC8956951 (The Journal of Biological Chemistry, 2022).

Where “and” joins values, the source holds several entries; their conditions need not be identical. Equal values may be shown once.

The target of experiment [1] is T1, Fu-bc subunit protein (Dengue virus (DENV-2-like E domain II), …).
T1 chain: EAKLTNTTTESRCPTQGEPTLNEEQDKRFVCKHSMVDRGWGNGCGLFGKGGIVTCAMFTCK
Description: SPR. (Surface plasmon resonance follows binding to a sensor surface in real time, without labels.)

Experiment [2] has as its target T2, Fu-bc fused to the GAL4 activation domain (pGADT7) (Dengue virus (DENV-2-like E domain II), …).
T2 chain: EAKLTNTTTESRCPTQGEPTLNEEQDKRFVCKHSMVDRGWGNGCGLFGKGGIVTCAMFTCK
Description: two-hybrid.

Experiment [3] has as its target T1, Fu-bc subunit protein. Description: BLI.

B1: scFv-Mutant9 (S227W) (scFv, V domains shown)
VH: EVKLVESGGGLVLPGGSLRLSCATSGFTFTDYYMTWVRQPPGKALEWLGFIGNKANDYTTEYSASVKGRFTISRDDSQSILYLQMSTLRAEDRATYYCATVYGNYPYFDVWGAGTTVAVSS
VL: QIVLTQSPAIMSASPGEKVTMTCSASSSVSYMHWYQQKSGTSPKIWIYESSKLASGVPVRFSGSGSGTSYSLTISSMEAEDVATYYCQQWSWHPHPLTFGAGTKLELK
In the case of B1, in the experiment with Fu-bc subunit protein [1], the binding result is on record as “binds”.

B2: scFv-Mutant8 (S227L) (scFv, V domains shown)
VH: EVKLVESGGGLVLPGGSLRLSCATSGFTFTDYYMTWVRQPPGKALEWLGFIGNKANDYTTEYSASVKGRFTISRDDSQSILYLQMSTLRAEDRATYYCATVYGNYPYFDVWGAGTTVAVSS
VL: QIVLTQSPAIMSASPGEKVTMTCSASSSVSYMHWYQQKSGTSPKIWIYESSKLASGVPVRFSGSGSGTSYSLTISSMEAEDVATYYCQQWSLHPHPLTFGAGTKLELK
For B2, in the experiment with Fu-bc subunit protein [1], the binding result is “binds”.

B3: scFv single mutant D31L (scFv, V domains shown)
VH: EVKLVESGGGLVLPGGSLRLSCATSGFTFTLYYMTWVRQPPGKALEWLGFIGNKANDYTTEYSASVKGRFTISRDDSQSILYLQMSTLRAEDRATYYCATVYGNYPYFDVWGAGTTVAVSS
VL: QIVLTQSPAIMSASPGEKVTMTCSASSSVSYMHWYQQKSGTSPKIWIYESSKLASGVPVRFSGSGSGTSYSLTISSMEAEDVATYYCQQWSSHPHPLTFGAGTKLELK
On to B3, for which the binding result in the experiment with Fu-bc subunit protein [1] is on record as “binds”.

B4: scFv-mutant15 fused to the GAL4 DNA-binding domain (pGBKT7) (scFv, V domains shown)
VH: EVKLVESGGGLVLPGGSLRLSCATSGFTFTLYYMTWVRQPPGKALEWLGFIGNKANDYTTEYSASVKGRFTISRDDSQSILYLQMSTLRAEDRATYYCATVYGNWPYFDVWGAGTTVAVSS
VL: QIVLTQSPAIMSASPGEKVTMTCSASSSVSYMHWYQQKSGTSPKIWIYESSKLASGVPVRFSGSGSGTSYSLTISSMEAEDVATYYCQQWSWHPHPLTFGAGTKLELK
As for B4, in experiment [2], the binding result is recorded as “binds”.

B5: scFv-mutant18 fused to the GAL4 DNA-binding domain (pGBKT7) (scFv, V domains shown)
VH: EVKLVESGGGLVLPGGSLRLSCATSGFTFTDYQMTWVRQPPGKALEWLGFIGNKANDYTTEYSASVKGRFTISRDDSQSILYLQMSTLRAEDRATYYCATVYGNWPYFDVWGAGTTVAVSS
VL: QIVLTQSPAIMSASPGEKVTMTCSASSSVSYMHWYQQKSGTSPKIWIYESSKLASGVPVRFSGSGSGTSYSLTISSMEAEDVATYYCQQWSSHPWPLTFGAGTKLELK
For B5, the binding result in experiment [2] is reported as “binds”.

B6: scFv-mutant16 fused to the GAL4 DNA-binding domain (pGBKT7) (scFv, V domains shown)
VH: EVKLVESGGGLVLPGGSLRLSCATSGFTFWDYQMTWVRQPPGKALEWLGFIGNKANDYTTEYSASVKGRFTISRDDSQSILYLQMSTLRAEDRATYYCATVYGNYPYFDVWGAGTTVAVSS
VL: QIVLTQSPAIMSASPGEKVTMTCSASSSVSYMHWYQQKSGTSPKIWIYESSKLASGVPVRFSGSGSGTSYSLTISSMEAEDVATYYCQQWSWHPHPLTFGAGTKLELK
With B6, the binding result in experiment [2] is “binds”.

B7: scFv-Mutant1 (T30W) (scFv, V domains shown)
VH: EVKLVESGGGLVLPGGSLRLSCATSGFTFWDYYMTWVRQPPGKALEWLGFIGNKANDYTTEYSASVKGRFTISRDDSQSILYLQMSTLRAEDRATYYCATVYGNYPYFDVWGAGTTVAVSS
VL: QIVLTQSPAIMSASPGEKVTMTCSASSSVSYMHWYQQKSGTSPKIWIYESSKLASGVPVRFSGSGSGTSYSLTISSMEAEDVATYYCQQWSSHPHPLTFGAGTKLELK
Consider B7, for which the binding result in the experiment with Fu-bc subunit protein [1] is on record as “binds”.

B8: scFv double mutant13 (Y33Q, G103T) (scFv, V domains shown)
VH: EVKLVESGGGLVLPGGSLRLSCATSGFTFTDYQMTWVRQPPGKALEWLGFIGNKANDYTTEYSASVKGRFTISRDDSQSILYLQMSTLRAEDRATYYCATVYTNYPYFDVWGAGTTVAVSS
VL: QIVLTQSPAIMSASPGEKVTMTCSASSSVSYMHWYQQKSGTSPKIWIYESSKLASGVPVRFSGSGSGTSYSLTISSMEAEDVATYYCQQWSSHPHPLTFGAGTKLELK
Regarding B8, the “fold change in affinity against the WT” value with Fu-bc subunit protein [1] was 45 fold.

B9: scFv-Mutant6 (G103T) (scFv, V domains shown)
VH: EVKLVESGGGLVLPGGSLRLSCATSGFTFTDYYMTWVRQPPGKALEWLGFIGNKANDYTTEYSASVKGRFTISRDDSQSILYLQMSTLRAEDRATYYCATVYTNYPYFDVWGAGTTVAVSS
VL: QIVLTQSPAIMSASPGEKVTMTCSASSSVSYMHWYQQKSGTSPKIWIYESSKLASGVPVRFSGSGSGTSYSLTISSMEAEDVATYYCQQWSSHPHPLTFGAGTKLELK
Consider B9, for which the binding result with Fu-bc subunit protein [1] is recorded as “binds”.

B10: scFv-mutant16 (T30W, Y33Q, S227W) (scFv, V domains shown)
VH: EVKLVESGGGLVLPGGSLRLSCATSGFTFWDYQMTWVRQPPGKALEWLGFIGNKANDYTTEYSASVKGRFTISRDDSQSILYLQMSTLRAEDRATYYCATVYGNYPYFDVWGAGTTVAVSS
VL: QIVLTQSPAIMSASPGEKVTMTCSASSSVSYMHWYQQKSGTSPKIWIYESSKLASGVPVRFSGSGSGTSYSLTISSMEAEDVATYYCQQWSWHPHPLTFGAGTKLELK
On to B10, for which the Kd came to 52 ± 17 nM with Fu-bc subunit protein [1] and 47 ± 19 nM with Fu-bc subunit protein [3].

B11: scFv single mutant D31F (scFv, V domains shown)
VH: EVKLVESGGGLVLPGGSLRLSCATSGFTFTFYYMTWVRQPPGKALEWLGFIGNKANDYTTEYSASVKGRFTISRDDSQSILYLQMSTLRAEDRATYYCATVYGNYPYFDVWGAGTTVAVSS
VL: QIVLTQSPAIMSASPGEKVTMTCSASSSVSYMHWYQQKSGTSPKIWIYESSKLASGVPVRFSGSGSGTSYSLTISSMEAEDVATYYCQQWSSHPHPLTFGAGTKLELK
As to B11, the binding result in the experiment with Fu-bc subunit protein [1] is listed as “binds”.

B12: scFv double mutant12 (T30W, S227W) (scFv, V domains shown)
VH: EVKLVESGGGLVLPGGSLRLSCATSGFTFWDYYMTWVRQPPGKALEWLGFIGNKANDYTTEYSASVKGRFTISRDDSQSILYLQMSTLRAEDRATYYCATVYGNYPYFDVWGAGTTVAVSS
VL: QIVLTQSPAIMSASPGEKVTMTCSASSSVSYMHWYQQKSGTSPKIWIYESSKLASGVPVRFSGSGSGTSYSLTISSMEAEDVATYYCQQWSWHPHPLTFGAGTKLELK
On to B12, for which the binding result in the experiment with Fu-bc subunit protein [1] is “binds”.

B13: scFv-mutant15 (D31L, Y105W, S227W) (scFv, V domains shown)
VH: EVKLVESGGGLVLPGGSLRLSCATSGFTFTLYYMTWVRQPPGKALEWLGFIGNKANDYTTEYSASVKGRFTISRDDSQSILYLQMSTLRAEDRATYYCATVYGNWPYFDVWGAGTTVAVSS
VL: QIVLTQSPAIMSASPGEKVTMTCSASSSVSYMHWYQQKSGTSPKIWIYESSKLASGVPVRFSGSGSGTSYSLTISSMEAEDVATYYCQQWSWHPHPLTFGAGTKLELK
Turning to B13, the Kd in the experiment with Fu-bc subunit protein [1] is 24 nM and 20 to 52 nM; with Fu-bc subunit protein [3] it was 21 ± 11 nM.

B14: scFv double mutant T30W, S227L (scFv, V domains shown)
VH: EVKLVESGGGLVLPGGSLRLSCATSGFTFWDYYMTWVRQPPGKALEWLGFIGNKANDYTTEYSASVKGRFTISRDDSQSILYLQMSTLRAEDRATYYCATVYGNYPYFDVWGAGTTVAVSS
VL: QIVLTQSPAIMSASPGEKVTMTCSASSSVSYMHWYQQKSGTSPKIWIYESSKLASGVPVRFSGSGSGTSYSLTISSMEAEDVATYYCQQWSLHPHPLTFGAGTKLELK
Consider B14, for which the binding result with Fu-bc subunit protein [1] is reported as “binds”.

B15: scFv-mutant17 (Y33Q, G103T, S227L) (scFv, V domains shown)
VH: EVKLVESGGGLVLPGGSLRLSCATSGFTFTDYQMTWVRQPPGKALEWLGFIGNKANDYTTEYSASVKGRFTISRDDSQSILYLQMSTLRAEDRATYYCATVYTNYPYFDVWGAGTTVAVSS
VL: QIVLTQSPAIMSASPGEKVTMTCSASSSVSYMHWYQQKSGTSPKIWIYESSKLASGVPVRFSGSGSGTSYSLTISSMEAEDVATYYCQQWSLHPHPLTFGAGTKLELK
As to B15, the Kd with Fu-bc subunit protein [1] was determined as 27 ± 11 nM; in the experiment with Fu-bc subunit protein [3] it was 31 ± 14 nM.

B16: scFv-Mutant5 (Y33Q) (scFv, V domains shown)
VH: EVKLVESGGGLVLPGGSLRLSCATSGFTFTDYQMTWVRQPPGKALEWLGFIGNKANDYTTEYSASVKGRFTISRDDSQSILYLQMSTLRAEDRATYYCATVYGNYPYFDVWGAGTTVAVSS
VL: QIVLTQSPAIMSASPGEKVTMTCSASSSVSYMHWYQQKSGTSPKIWIYESSKLASGVPVRFSGSGSGTSYSLTISSMEAEDVATYYCQQWSSHPHPLTFGAGTKLELK
B16 registered a Kd with Fu-bc subunit protein [1] of 302 ± 15 nM.

B17: scFv-mutant18 (Y33Q, Y105W, H230W) (scFv, V domains shown)
VH: EVKLVESGGGLVLPGGSLRLSCATSGFTFTDYQMTWVRQPPGKALEWLGFIGNKANDYTTEYSASVKGRFTISRDDSQSILYLQMSTLRAEDRATYYCATVYGNWPYFDVWGAGTTVAVSS
VL: QIVLTQSPAIMSASPGEKVTMTCSASSSVSYMHWYQQKSGTSPKIWIYESSKLASGVPVRFSGSGSGTSYSLTISSMEAEDVATYYCQQWSSHPWPLTFGAGTKLELK
Take B17: the “fold change in affinity against the WT” value with Fu-bc subunit protein [1] is about 7 fold. The molecule further came in with a Kd in the experiment with Fu-bc subunit protein [3] of 310 ± 35 nM.

B18: scFv-mutant17 fused to the GAL4 DNA-binding domain (pGBKT7) (scFv, V domains shown)
VH: EVKLVESGGGLVLPGGSLRLSCATSGFTFTDYQMTWVRQPPGKALEWLGFIGNKANDYTTEYSASVKGRFTISRDDSQSILYLQMSTLRAEDRATYYCATVYTNYPYFDVWGAGTTVAVSS
VL: QIVLTQSPAIMSASPGEKVTMTCSASSSVSYMHWYQQKSGTSPKIWIYESSKLASGVPVRFSGSGSGTSYSLTISSMEAEDVATYYCQQWSLHPHPLTFGAGTKLELK
With B18, the binding result in experiment [2] is “binds”.

B19: scFv-Mutant7 (Y105W) (scFv, V domains shown)
VH: EVKLVESGGGLVLPGGSLRLSCATSGFTFTDYYMTWVRQPPGKALEWLGFIGNKANDYTTEYSASVKGRFTISRDDSQSILYLQMSTLRAEDRATYYCATVYGNWPYFDVWGAGTTVAVSS
VL: QIVLTQSPAIMSASPGEKVTMTCSASSSVSYMHWYQQKSGTSPKIWIYESSKLASGVPVRFSGSGSGTSYSLTISSMEAEDVATYYCQQWSSHPHPLTFGAGTKLELK
For B19, in the experiment with Fu-bc subunit protein [1], the binding result is reported as “binds”.

In general, Kd refers to a measure of binding affinity in units of concentration.
